This is an account of results in the Human Domainome abundance scans (Beltran et al. 2025).

± gives the uncertainty stated by the source.

A short description of the series: abundance fitness (aPCA) (normalised: wild type 0, dead -1); higher = more abundant; growth selection in yeast, the domain comes from the species named. To be noted: Homo sapiens.
The substance “Scaffold attachment factor B2 R45V, Q14151” came in with an abundance fitness of -0.565 ± 0.095. Under “Scaffold attachment factor B2 R45W, Q14151” stands -0.709 ± 0.085; under “Scaffold attachment factor B2 R59A, Q14151”, -0.465 ± 0.092. “Scaffold attachment factor B2 R59C, Q14151” came in with an abundance fitness of -0.583 ± 0.19. For “Scaffold attachment factor B2 R59D, Q14151” the value was -0.54 ± 0.24.

On to “Scaffold attachment factor B2 R59E, Q14151”, for which the abundance fitness was -0.294 ± 0.099. With “Scaffold attachment factor B2 R59G, Q14151”, the abundance fitness was -0.23 ± 0.11. In the case of “Scaffold attachment factor B2 R59H, Q14151”, the abundance fitness was -0.474 ± 0.22. “Scaffold attachment factor B2 R59I, Q14151” came in with an abundance fitness of -1.2 ± 0.22. Regarding “Scaffold attachment factor B2 R59K, Q14151”, the abundance fitness is -0.41 ± 0.19.

“Scaffold attachment factor B2 R59L, Q14151” had an abundance fitness of -0.771 ± 0.1. For “Scaffold attachment factor B2 R59M, Q14151” the value was -0.643 ± 0.12; for “Scaffold attachment factor B2 R59N, Q14151”, -0.623 ± 0.32; for “Scaffold attachment factor B2 R59P, Q14151”, -0.249 ± 0.094. Under “Scaffold attachment factor B2 R59Q, Q14151” stands -0.595 ± 0.097; under “Scaffold attachment factor B2 R59S, Q14151”, -0.322 ± 0.087; under “Scaffold attachment factor B2 R59T, Q14151”, -0.223 ± 0.15.

In turn, “Scaffold attachment factor B2 R59V, Q14151” came in with an abundance fitness of -0.496 ± 0.097. Under “Scaffold attachment factor B2 R59W, Q14151” stands -1.25 ± 0.15; under “Scaffold attachment factor B2 S31A, Q14151”, -0.051 ± 0.1; under “Scaffold attachment factor B2 S31C, Q14151”, -0.415 ± 0.16. For “Scaffold attachment factor B2 S31D, Q14151” the value was -0.086 ± 0.12. The substance “Scaffold attachment factor B2 S31E, Q14151” registered an abundance fitness of -0.01 ± 0.092.

Regarding “Scaffold attachment factor B2 S31F, Q14151”, the abundance fitness was -0.488 ± 0.16. Take “Scaffold attachment factor B2 S31G, Q14151”: the abundance fitness was -0.208 ± 0.076. In turn, “Scaffold attachment factor B2 S31H, Q14151” gave an abundance fitness of -0.194 ± 0.09. Consider “Scaffold attachment factor B2 S31K, Q14151”, for which the abundance fitness is -0.221 ± 0.11. On to “Scaffold attachment factor B2 S31L, Q14151”, for which the abundance fitness was -0.312 ± 0.1. For “Scaffold attachment factor B2 S31M, Q14151” the value was -0.341 ± 0.11. Under “Scaffold attachment factor B2 S31N, Q14151” stands -0.027 ± 0.11.

As to “Scaffold attachment factor B2 S31Q, Q14151”, the abundance fitness was -0.311 ± 0.095.

The substance “Scaffold attachment factor B2 S31T, Q14151” showed an abundance fitness of -0.225 ± 0.48.

Take “Scaffold attachment factor B2 S31Y, Q14151”: the abundance fitness is -0.629 ± 0.12. Under “Scaffold attachment factor B2 S54A, Q14151” stands -0.037 ± 0.077; under “Scaffold attachment factor B2 S54C, Q14151”, -0.44 ± 0.14.

“Scaffold attachment factor B2 S54D, Q14151” returned an abundance fitness of -0.1 ± 0.14. Under “Scaffold attachment factor B2 S54E, Q14151” stands -0.038 ± 0.11; under “Scaffold attachment factor B2 S54G, Q14151”, -0.101 ± 0.071; under “Scaffold attachment factor B2 S54H, Q14151”, -0.191 ± 0.18. In the case of “Scaffold attachment factor B2 S54I, Q14151”, the abundance fitness is -0.003 ± 0.21. Under “Scaffold attachment factor B2 S54K, Q14151” stands 0.031 ± 0.13.

In the case of “Scaffold attachment factor B2 S54L, Q14151”, the abundance fitness is -0.167 ± 0.1. Under “Scaffold attachment factor B2 S54M, Q14151” stands -0.15 ± 0.2; under “Scaffold attachment factor B2 S54N, Q14151”, -0.223 ± 0.12. Under “Scaffold attachment factor B2 S54Q, Q14151” stands 0.042 ± 0.1; under “Scaffold attachment factor B2 S54R, Q14151”, 0.071 ± 0.074.

Regarding “Scaffold attachment factor B2 S54T, Q14151”, the abundance fitness was determined as 0.073 ± 0.11.

“Scaffold attachment factor B2 S54V, Q14151” yielded an abundance fitness of -0.163 ± 0.078. Under “Scaffold attachment factor B2 S54W, Q14151” stands -0.261 ± 0.18; under “Scaffold attachment factor B2 S54Y, Q14151”, -0.358 ± 0.27; under “Scaffold attachment factor B2 T27A, Q14151”, -0.164 ± 0.1. “Scaffold attachment factor B2 T27C, Q14151”: the abundance fitness is -0.112 ± 0.11.

“Scaffold attachment factor B2 T27D, Q14151” showed an abundance fitness of 0.024 ± 0.18.

“Scaffold attachment factor B2 T27E, Q14151” registered an abundance fitness of 0.08 ± 0.21.

Regarding “Scaffold attachment factor B2 T27G, Q14151”, the abundance fitness is -0.128 ± 0.094. As to “Scaffold attachment factor B2 T27I, Q14151”, the abundance fitness is -0.136 ± 0.19.

As to “Scaffold attachment factor B2 T27K, Q14151”, the abundance fitness is -0.658 ± 0.16.

Substance “Scaffold attachment factor B2 T27L, Q14151” showed an abundance fitness of -0.074 ± 0.13. For “Scaffold attachment factor B2 T27M, Q14151” the value was -0.053 ± 0.15; for “Scaffold attachment factor B2 T27Q, Q14151”, -0.076 ± 0.19. Under “Scaffold attachment factor B2 T27R, Q14151” stands -0.275 ± 0.096; under “Scaffold attachment factor B2 T27S, Q14151”, -0.175 ± 0.13; under “Scaffold attachment factor B2 T27V, Q14151”, -0.369 ± 0.15.

“Scaffold attachment factor B2 T27W, Q14151”: the abundance fitness was -0.514 ± 0.13. Under “Scaffold attachment factor B2 T49A, Q14151” stands -0.181 ± 0.089. For “Scaffold attachment factor B2 T49C, Q14151” the value was -0.266 ± 0.12; for “Scaffold attachment factor B2 T49D, Q14151”, -0.472 ± 0.13; for “Scaffold attachment factor B2 T49E, Q14151”, -0.26 ± 0.094. For “Scaffold attachment factor B2 T49F, Q14151” the value was -0.452 ± 0.1; for “Scaffold attachment factor B2 T49G, Q14151”, -0.509 ± 0.075. “Scaffold attachment factor B2 T49H, Q14151”: the abundance fitness is -0.647 ± 0.18. For “Scaffold attachment factor B2 T49I, Q14151” the value was -0.401 ± 0.2; for “Scaffold attachment factor B2 T49K, Q14151”, -0.788 ± 0.16. Take “Scaffold attachment factor B2 T49L, Q14151”: the abundance fitness is -0.155 ± 0.089. In the case of “Scaffold attachment factor B2 T49M, Q14151”, the abundance fitness is -0.606 ± 0.12. Under “Scaffold attachment factor B2 T49N, Q14151” stands -0.807 ± 0.43; under “Scaffold attachment factor B2 T49P, Q14151”, -0.349 ± 0.084; under “Scaffold attachment factor B2 T49Q, Q14151”, -0.286 ± 0.11. Take “Scaffold attachment factor B2 T49R, Q14151”: the abundance fitness was -0.766 ± 0.077.

“Scaffold attachment factor B2 T49S, Q14151” came in with an abundance fitness of -0.159 ± 0.087. With “Scaffold attachment factor B2 T49V, Q14151”, the abundance fitness was -0.201 ± 0.07. Under “Scaffold attachment factor B2 T49W, Q14151” stands -0.365 ± 0.1. Under “Scaffold attachment factor B2 T49Y, Q14151” stands -0.512 ± 0.18.

Substance “Scaffold attachment factor B2 V35A, Q14151” came in with an abundance fitness of -0.2 ± 0.074. For “Scaffold attachment factor B2 V35C, Q14151” the value was -0.565 ± 0.12. Under “Scaffold attachment factor B2 V35D, Q14151” stands -0.087 ± 0.11.

“Scaffold attachment factor B2 V35E, Q14151” returned an abundance fitness of 0.129 ± 0.083. For “Scaffold attachment factor B2 V35F, Q14151” the value was -0.448 ± 0.099; for “Scaffold attachment factor B2 V35G, Q14151”, -0.351 ± 0.074; for “Scaffold attachment factor B2 V35H, Q14151”, -0.57 ± 0.12. For “Scaffold attachment factor B2 V35L, Q14151” the value was -0.353 ± 0.078; for “Scaffold attachment factor B2 V35M, Q14151”, -0.236 ± 0.12; for “Scaffold attachment factor B2 V35Q, Q14151”, -0.431 ± 0.1.

“Scaffold attachment factor B2 V35R, Q14151” displayed an abundance fitness of -0.438 ± 0.067. With “Scaffold attachment factor B2 V35S, Q14151”, the abundance fitness was -0.184 ± 0.089.

Take “Scaffold attachment factor B2 V35T, Q14151”: the abundance fitness was -0.075 ± 0.084.
